Experimental data: paper PMC6749071, “Identification of Lysine Histidine Transporter 2 as an 1-Aminocyclopropane Carboxylic Acid Transporter in Arabidopsis thaliana by Transgenic Complementation Approach” (Frontiers in Plant Science, 2019)

Substrate: NC1(C(=O)O)CC1
Experiment: two-electrode voltage clamp, inward current in Xenopus oocytes
Format: cell-based, Arabidopsis thaliana
Settings: pH 5.6, -80 mV, room temperature, Michaelis-Menten fit

Protein | K0.5 [mM]
LHT1 (Arabidopsis thaliana) (protein, cDNA in pGEM-HE, cRNA injected into Xenopus laevis oocytes) MVAQAPHDDHQDDEKLAAARQKEIEDWLPITSSRNAKWWYSAFHNVTAMVGAGVLGLPYAMSQLGWGPGIAVLVLSWVITLYTLWQMVEMHEMVPGKRFDRYHELGQHAFGEKLGLYIVVPQQLIVEIGVCIVYMVTGGKSLKKFHELVCDDCKPIKLTYFIMIFASVHFVLSHLPNFNSISGVSLAAAVMSLSYSTIAWASSASKGVQEDVQYGYKAKTTAGTVFNFFSGLGDVAFAYAGHNVVLEIQATIPSTPEKPSKGPMWRGVIVAYIVVALCYFPVALVGYYIFGNGVEDNILMSLKKPAWLIATANIFVVIHVIGSYQIYAMPVFDMMETLLVKKLNFRPTTTLRFFVRNFYVAATMFVGMTFPFFGGLLAFFGGFAFAPTTYFLPCVIWLAIYKPKKYSLSWWANWVCIVFGLFLMVLSPIGGLRTIVIQAKGYKFYS | 60.9 ± 8.2
LHT2 (Arabidopsis thaliana) (protein, cDNA in pGEM-HE, cRNA injected into Xenopus laevis oocytes) MGNSEMSASEVAAAKQKNVDDWLPITSSRNAKWWYSAFHNVTAMVGAGVLSLPYAMSNLGWGPGVTIMVMSWIITLYTLWQMVEMHEIVPGKRLDRYHELGQHAFGEKLGLWIVVPQQLIVEVGVDIVYMVTGGASLKKVHQLVCPDCKEIRTTFWIMIFASVHFVISHLPNFNSISIISLAAAVMSLTYSTIAWAASVHKGVHPDVDYSPRASTDVGKVFNFLNALGDVAFAYAGHNVVLEIQATIPSTPEMPSKVPMWRGVIVAYIVVAICYFPVAFLGYYIFGNSVDDNILITLEKPIWLIAMANMFVVIHVIGSYQIFAMPVFDMLETVLVKKMNFNPSFKLRFITRSLYVAFTMIVAICVPFFGGLLGFFGGFAFAPTTYYLPCIMWLVLKKPKRFGLSWTANWFCIIVGVLLTILAPIGGLRTIIINAKTYKFFS | 59.1 ± 6.6
